The values below come from the DeepSol protein solubility set.

This data set is described as follows: soluble on expression in E. coli; label from the status in PepcDB or PDB records.
As to “MSLNEHDIYMQDFMTVFASLQHWGPGSEQDSLKAISLMSMQNMQHILDIGCETGLSTLLLAENSSAHITAVDNEPIAIEQLEKQRQHSPWKEQISPVLGSMTALPFAAKSFDAIWAEGCVYIMGMENALKQWKPFLADNAILMVSDLVWLTENPKPEAQEFWQSEYPDIQSIPSRIKLFKKLGYEVMEHFSLGIDAWQNYWLPLQNRVQELKLRLTNSQALSDIEKEIAIYERSAAKDFTYQYFVLKLNHEGHHHHHH”, the “soluble on expression in E. coli” value is recorded as “not soluble”.
Take “MSLKITRIEAIPYAIPYSRPLKFASGEVSTAEHVLVRIHTDAGICGVADTPPRPYTYGETQDSIVSVVTKVFAPQLIGMDPMDRSKVQQLLGRTVNNPTAKGALDIALWDVIGISLGTPVHKLLGGFSDSMRVSHMLGFKAAAELLEEALRFRETYGIDTFKLKVGRRPLSLDVEACHVLREGLGADTEIYLDANRGWTANEAMEVLRRTEGLGLSMLEEPCDAAEAMGRRRLVQHSSIPIVGDESVPNLGDVSRELLSGGSNAICIKTARSGFTEAQQILGLCEGLGVDVTMGNQIDTQVGSLATVTFGAAFEASSRRAGELSNYLDMTDDLLAEPLEITDGAIRVRKAPGVGAAIDADKLQKYREGHHHHHH”: the “soluble on expression in E. coli” value was “soluble”.
“MQICQNPSCSNPFNPDGNRFCMSCGQSNFGKLLRNRYRVLGLLGEGGFSKTYAAEDADRLDAPCVIKQFFPQIQGTGQRSKAAEFFKEEAFRLYELGENHTQIPRLLAYFEQGSSLYLVQEFIKGLTLLQEVQQEPFNEEKIRQLLIDLLPVLDFVHFHHVIHRDIKPENIIRRDGDGKLVLIDFGGAKQVTQTSIARQATAIYTLGYAPTEQMAGFACHASDLYALGVTCVRLLTQCLPQQNLYGHIDDGLYDPMNGKWLWQEYLQDRGITISENLSQILDKLLKHLPSERYQSAAEVLHDLQVFTAIVEETQILPNTQTTLVPLAPATQRTKRPLPPLQTFEYEVVTVDTAGRIVNRDRTNTQILVEQLNKDITLEMLSIPGGAYLMGSPNFEGDADERPQHQVAIAPFFMGKYPVTQAQWRAVAGLPKIKQALNPYPSKYKGQNRPVENVSWHEVLEFCARLSEKTGREYRLPSEAEWEYACRAGTTTSFHFGETITPDLANFSDSDIHNIEAKTRYRKETTDVGNFRVANAFGLYDMHGLVWEWCADPWHNNYNGAPTDGSVWEAGGDIYRRVLRGGSWNFGAELCRSASRSWNESDGGLRICGFRVVFSAGLEHHHHHH”: the “soluble on expression in E. coli” value is “soluble”.
For the sequence “MYADEVDKDRRTFKKNFSSARGSGIDGKWKRDMFQTANRSPKQNFTTKRRAQTNFVTKAGAAAAGLATRNISTASIRGRTAPAVVREIHTGPSTLIIKNLATTVTQEDLEELFEQYEPELVQLHYGPTGESNGCADLIVPHAQVAIIQKALEGVLLDGEPIEVLEANPPKQVSVFDRIKKVSRGNDFKAKNMRVVVKSKGGFQKRGARGDF”, the “soluble on expression in E. coli” value is recorded as “not soluble”.
Consider “THQMNQFYTTGAGRDIFATDEAKQVSAHLANEVDQLAQSLLKKEVYDKTKLFVADFVRQYPFADLSMIRTPAYRAWLEANQISEEDAVTTLGTMPEALGDVSDRLSLVSEQTPKIMTWKAQLLALNSSASIEKVNAALNSLQVTADSMRDFIDNNPEYMRYLAEQMAVELQPLVDDIDQKTEARLSQLGEERQALEEMVARERQEIALIITHEREKFAQDMDRVSQEVVNLAMTKLIELVKST”, for which the “soluble on expression in E. coli” value was “not soluble”.
Regarding “MSLSRLLPDPDVAGAWMVRVGDADQSWIDPDDPTRLEFDYMQRIADHLDVHRPAGERMRVIHLGGAGMCLARYVAATRPTSPQIVCEPDAELTAEVRLKAPLPVRSGIKVRPVDGRSGVAAMREDFADVVILDAFDGARVPGDLVTVEFFADVSRILHSDGIGVANLADSAPLVWTKRVVRSVKEVFSNVCMAAEPATLKGRRYGNIVLAASNGPLHEEDLTRRCSGAAVPFRFIAGDALAKLLADARPFHDGDTESSEGHHHHHH”, the “soluble on expression in E. coli” value was “not soluble”.
Take “MGSDKIHHHHHHMNPSPLPYFLGCPSWSENAWRDYLYPADANSNQMLGFYSQVFNAVEGNTTFYARPAPGTIARWAQLMPEHFRFTAKFPRDVSHEGDLRDQLEPAFDFTRLMAPLGRRVSPYWLQLPAQFGPARLGELCHFLDQIAVPVAVEVRNQAFFAKGEEERLLNRLLHERGVERICLDPRALFSCTSRDPAVLHAQSKKPKVPPRPAAFSQHPQVRFIGHPELEANHTFLSPWVEKVAAWIEEGRNPYIFLHTSDNRLAAALAQRFHQRLMARLPGLAPLPELPRAPEVEQLGLL”: the “soluble on expression in E. coli” value is “not soluble”.
On to “GPGSMSTTSSPDEASCDVEKEGKGISPVTRTGKRFAECALMDLPDKYSSAFPYLRGARLFFFDVVSKLNRIGARNKRVVFVTDYTIGVASKRGHVSRCAKVEDISELICDAQTRALGVRMRSRPFAIVPKDFSRWNCFHEMPVDLLLHATSAAQYEALINVLSFVHHTSTHEALLCRSLKQYETWKASLVLAPDGSRVKKAVQYYAIPVTPSERSTDAATLSATRSQETSASLSAVRAPRQVALLSAGDSASRFTSGPDVSATAPKLRHWSSLGASSSFTPSGVGGHRTALGLSPFSLSPSPAPPLVEFSRDIEAVPTSATRRGVNPLLKADRKAPNAS”, for which the “soluble on expression in E. coli” value is on record as “not soluble”.
For “MNLLVIGGHERMEKDYMVMAKKKGYKTKVYTTMSSKLNNSIGRPDAVVILTSTVSHKMSRTVESQAKKQDILIVRHKNSLEHHHHHH”, the “soluble on expression in E. coli” value is given as “soluble”.
For “MKRGDIAHGLRLSGFKSLFPFSLHWCHTASKSVNCTWHQHEDHLELQYASTVMRFDYVWLRDHCRSASCYNSKTHQRSLDTASVDLCIKPKTIRLDESTLFFTWPDGHVTRYDLDWLVKNSYEGQKQEVIQPRVLWNAKLYQDAQLPSVDFQGFLETKEGLKKFLQNFLLYGIAFVENVPPTQEHTEKLARRVSLIRETIYGRMWYFTSDFSRGDTAYTKLALDRHTDTTYFQEPCGIQVFHCLKHEGTGGRTLLVDGFYAAQQVLQRAPEEFDLLSQVPLKHEYIENVGQCHNHMIGVGPILNIYPWNKELYLIRYNNYDRAVINTVPYDVVRRWYAAHRTLTTELRRPENELWVKLKPGKVLFIDNWRVLHGRESFTGYRQLCGCYLTRDDVLNTARILGLHA”, the “soluble on expression in E. coli” value was “not soluble”.
Take “MSLRRVFMKQIEGGICAVRGVSAYGIKPGKMGIAVIRAEGPAAGVFTRNKVVAAPVTLSRERIETEHRLSAVIANSGNANAFTGDDGFLDAMEMASMVAENLGLDPDNVAVASTGVIGRRLDVSFIKEHLPEVLEGLGSSPECSRAAAKAIMTTDRALKESAVELDCGVRIGAIAKGSGMIEPNMGTMLCFAYTDAKVPADVLDAALKIAVDKTFNMVVVDGDTSTNDMVLFTSTCKSGVKPCLDCLDDFEEGLVCVFTDLAKKMAKDGEGATKLIEARVTGAKKYEDARLVAKTIVRSPLVKSAIFGKDPNWGRVVAAAGYSGAELEQERLTLSFSGGGEEVELVKAGEISTASDLSLLKKIMANDEIIINLDLAMGEESATAWGCDLTYDYVRINAEYTTLEHHHHHH”: the “soluble on expression in E. coli” value is “not soluble”.
As to “MNNRDQLFKAPPFENHSPLTWYQAASQLPNFIRDDAQAAAIEHLDRLWTELMMFKRKRNRFLGRSLRSPQVPKGLYFYGGVGRGKSFLMDAFFGCLPYRRKRRVHFHAFMAEIHRRLKALKSESNPLKSVAAEITKETRVLCFDEFHVSDIADAMILGRLLENLLNEGVVLVATSNYAPSELYPQGQNRSGFLPTIALIESSLTVLNVDGGEDYRLRTLRPAEIFFTPANEENEAKLAKLFKEMTGITDLNPGISTIHGREIPHKAESGRTIWFDFRALCFSPRSQSDYLYLAEHYEMVFISGLEQLSPQEKAEARRLTWLIDVLYDFRVKLCATGAVDVNHIYTEGDFAEEFTRTASRMVEMQSEVYLEQPHLTLSPKASGGLEHHHHHH”, the “soluble on expression in E. coli” value is on record as “soluble”.
For the sequence “MEEELQHSHCVNCVSRRCMTRPEPGISCDLIGCPLVCGAVFHSCKADEHRLLCPFERVPCLNSDFGCPFTMARNKVAEHLEMCPASV”, the “soluble on expression in E. coli” value is “soluble”.
In the case of “MSRYGKNLVHYIIVEHDDQRGQKPIDDDDEKNFYYHCSFTFETFFRATAFLLAPAVCAVREVPCRLTRTRYNATEYIEGYGWMISLQQGLGVAEFYRPWPLSVQLQRYTTPSRRSRFAVLTPQRKCHQNEANGQDLSLLILLSRIYPLCSNTSQTRRVAARKGKLS”, the “soluble on expression in E. coli” value is on record as “not soluble”.
Consider “MNYLESEISALYASAHELCYLGMDGRPIYSDQFTRLNRDVFSQANALYDKRGNSHEEEARLCLSLLMGYNATLYNNGDKEERIQHILDRCWDVLEHLPASLLKVQLLVYCYGEVFDEELAREAQAIIDTWQDRKLSEEEREVVERLKDVQENPYPWSEVE”, for which the “soluble on expression in E. coli” value was “not soluble”.
For “MSRIGLQQLNNSARNSPFGSEKATGTKQIPEPLKLTAQLKKYQPITPSPLASATTITPVLSPFDVFCDDDQEAKNVETQMFEYGTVSTQTIINVPHVQPKITEADLTSEKPTVNYLRVMADRLQMDLDDEMDRNQRLVAELGDLDEKMRKIDDDTEILLEVLADIDEEQQTDEEIGTAQL”, the “soluble on expression in E. coli” value is “not soluble”.
As to “MSTYSSPFSRLLHPFSSPPLRPHQDSTTRQTVFIYSSPPVNSSMATDNVRLERMEIGMQLLLLRMAEKDGEAEKLARAELITEANLGGQGETTQLNPLVPVSKATAEKLSNELDEVGRNRTARWSKSGRTCVVS”, the “soluble on expression in E. coli” value is listed as “not soluble”.
Regarding “MSLGKQLAALPADEVVEQLELAVERFLIQRKIPDQTELGFILNHLHYQTKKGGAVGVQELNIDKNIHQIAVIGDLHGDAESTKYIFQKVLLNKTFMESGMAVFLGDYVDRGQHGINVLTSILAAKVVYGDRVITIRGNHESENLNRRYGFLDEVSRAYGHAFYHKTIAPFFKLLPVAYVASVTSHTTLANRILFVHGGLPRNATLDTLILRSKVDIPSSNDITDQRYTHSLENCLPEDAVQDILWSDPSQTVHGKDTLNDYTKNPRGAGILYSSEFYRKFATENRVLAMFRGHQVVKNGFRRDFFNHYTVFSSSDYVGMKNKGAYAVLDVRCMRTTITSEVDVIGLQNYKEVNLAHCIHAYPVVQKPENEGHHHHHH”, the “soluble on expression in E. coli” value is “soluble”.
For “PAVLELEGKKWRVENQENVSNLVIEDTELKQVAYIYKCVNTTLQIKGKINSITVDNCKKLGLVFDDVVGIVEIINSKDVKVQVMGKVPTISINKTDGCHAYLSKNSLDCEIVSAKSSEMNVLIPTEGGDFNEFPVPEQFKTLWNGQKLVTTVTEIAG”, the “soluble on expression in E. coli” value is given as “soluble”.
In the case of “MGSDKIHHHHHHMQLTSENYYSQEANKEYMSVSGYKDFAGTYGKMPCEFYGMEKLNGRWEDEKSTALLVGSYVDSYFEGSLDQFKKDNPEIFTQKGELKANFKQAEEIIARIERDEYFMKYMSGQKQVIMTGELFGAKWKIKMDSYIPGVAIVDLKVMASITDLKWVKDIGYLDFVRYWGYDIQGAVYQEIVRQNTGEKLPFFIAGATKQTEPDIRIIHVTDNYLQEALHMVEMNMPRILRVKNGEVEPDRCELCDCCRHNRVLKKPISIMDLTAGI” it was “not soluble”; in that of “MGSDKIHHHHHHLEISLNEIIDYYAKADVSFVGAFGERVSPQLKVLDRHTNPAGGGLVIPFSGSACFTFDGKPYVIEPGMVVHAGPGMRLSKEVIGDREWEYAVIHYHIPQHERDEYPLFHKDFSLAHGRSAKVPHLVRQILDIQSIPGAAAKFQTKVLFLSLLQEIFTAACGQPGQENSKLIEEAMGYIRLNYADELTVQKVADEFSVERRQFSYLFKRHTGMSPIHYLIECRISKAKELLGSPGCSVKQVAEWVGYTDSLYFSKAFKKYTGVSPSEYREGFAL”, “not soluble”.
Turning to “MIDDRQEEKMIKENVYFDGNVKSLGFSQQDGESTVGVMAPGQYTFGTGAPERMTVVKGALTIKRVTDADWVTFTAGEAFEVAGNSSFDLQVEVATAYLCEFLPA”, the “soluble on expression in E. coli” value is listed as “not soluble”.
